Test system: HTRA1-inhibiting peptides (Example 3-2 and 3-3, members not named)

Human plasma kallikrein, sequence (chain, as listed by the source): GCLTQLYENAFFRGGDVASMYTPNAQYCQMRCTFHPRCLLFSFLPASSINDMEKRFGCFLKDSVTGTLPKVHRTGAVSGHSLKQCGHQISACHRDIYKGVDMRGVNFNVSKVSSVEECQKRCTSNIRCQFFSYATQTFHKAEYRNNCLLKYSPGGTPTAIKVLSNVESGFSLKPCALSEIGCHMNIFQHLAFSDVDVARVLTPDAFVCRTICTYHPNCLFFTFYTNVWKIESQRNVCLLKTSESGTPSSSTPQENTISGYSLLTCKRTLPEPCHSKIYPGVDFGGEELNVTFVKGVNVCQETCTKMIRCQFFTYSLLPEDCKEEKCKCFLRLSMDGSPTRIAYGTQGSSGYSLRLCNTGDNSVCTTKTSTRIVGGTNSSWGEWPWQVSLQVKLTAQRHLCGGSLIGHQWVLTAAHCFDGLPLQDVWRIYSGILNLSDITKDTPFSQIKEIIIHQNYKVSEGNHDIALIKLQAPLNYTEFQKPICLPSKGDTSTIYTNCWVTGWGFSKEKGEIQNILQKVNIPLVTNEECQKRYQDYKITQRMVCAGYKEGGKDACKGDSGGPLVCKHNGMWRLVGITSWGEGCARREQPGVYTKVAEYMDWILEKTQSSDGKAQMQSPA

| Substance | protease activity (decomposition of a peptide substrate) |
| --- | --- |
| Bovine α-chymotrypsin | did not suppress the protease activity of any of the proteases at a final inhibitor concentration of 1 micro M |
| Human plasma kallikrein | did not suppress the protease activity of any of the proteases at a final inhibitor concentration of 1 micro M |
| Human protein C | did not suppress the protease activity of any of the proteases at a final inhibitor concentration of 1 micro M |
| Human thrombin | did not suppress the protease activity of any of the proteases at a final inhibitor concentration of 1 micro M |
| Human tryptase | did not suppress the protease activity of any of the proteases at a final inhibitor concentration of 1 micro M |
| Human uPA | did not suppress the protease activity of any of the proteases at a final inhibitor concentration of 1 micro M |

Source: US20200377573
